From publication PMC3750474

Columns and labels:
[1] = molecular target: HIV-1 M-group (NL4-3) N-terminal capsid domain; test: ITC
[2] = molecular target: HIV-1 M-group (NL4-3) N-terminal capsid domain (HIV-1 M-group (NL4-3))
[3] = molecular target: HIV-1 M-group (NL4-3) N-terminal capsid domain (HIV-1 M-group (NL4-3)); test: ITC; MicroCal ITC200, 15°C, 50 mM potassium phosphate pH 7.4, 100 mM NaCl, 1 mM DTT; NUP358Cyp (typical 2.5 mM) in the syringe, capsid domain (typical 0.2 mM) in the cell; one set of binding sites model
[4] = molecular target: HIV-1 capsid CAN (Human immunodeficiency virus 1) (UniProt O93182); conditions: cited from earlier work

| Substance | other: N (stoichiometry) [1] | other: ΔH [1] | other: ΔS ((cal/mol)/deg) [1] | rate of cis-trans isomerization of the capsid G89-P90 bond catalysed by NUP358Cyp (NMR ZZ-exchange; 430 μM CA^N, 35 μM NUP358Cyp, 298 K) [2] | Kd [3] | Kd [4] |
| --- | --- | --- | --- | --- | --- | --- |
| cyclophilin domain from human NUP358 (from UniProt P49792) V113F | 0.74 | -45.4 kJ/mol | -16.5 |  |  |  |
| cyclophilin domain from human NUP358 (from UniProt P49792 3057-3224) (domain or fragment) |  |  |  | 12.1 s⁻¹ | 94 µM |  |
| cyclophilin domain from human NUP358 (from UniProt P49792) V61M; V113F | 1.43 | -31.2 kJ/mol | -5.26 |  |  |  |
| NUP358 Cyp (from UniProt P49792) |  |  |  |  |  | 200 µM |
